Experimental data from PMC2962642, “Familial Glucocorticoid Receptor Haploinsufficiency by Non-Sense Mediated mRNA Decay, Adrenal Hyperplasia and Apparent Mineralocorticoid Excess”.

Biological target: hGRalpha-R469X (Homo sapiens, UniProt P04150 1-468)
Assay: EMSA; 15 min at 25 C; 4.5% acrylamide/bisacrylamide (37:1) gel, 0.25x TBE (50 mM Tris, 50 mM boric acid, 1 mM EDTA); binding buffer and pH not stated (as in ref. 26)
Settings: protein: ivt; label: 32P-dCTP (Klenow fill-in); 5' overhangs AGCT, filled in by Klenow for the labeled probe

Chain of hGRalpha-R469X (P04150 1-468): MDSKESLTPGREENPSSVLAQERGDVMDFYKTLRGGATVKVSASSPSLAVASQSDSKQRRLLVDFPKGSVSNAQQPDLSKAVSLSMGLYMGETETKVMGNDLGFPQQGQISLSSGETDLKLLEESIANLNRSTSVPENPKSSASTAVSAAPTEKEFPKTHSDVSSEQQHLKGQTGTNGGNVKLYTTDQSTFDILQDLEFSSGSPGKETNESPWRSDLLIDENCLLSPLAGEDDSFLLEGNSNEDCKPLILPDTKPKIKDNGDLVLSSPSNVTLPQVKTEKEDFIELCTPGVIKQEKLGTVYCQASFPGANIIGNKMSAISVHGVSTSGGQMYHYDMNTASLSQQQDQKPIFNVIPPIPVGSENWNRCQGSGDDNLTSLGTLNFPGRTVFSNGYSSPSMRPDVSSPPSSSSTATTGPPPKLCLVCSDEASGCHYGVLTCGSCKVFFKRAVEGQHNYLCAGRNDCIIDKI

B1: GRE consensus probe (dsDNA)
DNA 1: AGCTGCTCAGCTAGAACACTCTGTTCTCTACT
DNA 2: AGCTAGTAGAGAACAGAGTGTTCTAGCTAGC
binding result: no binding
